Experimental data taken from patent US20070207507A1.
Bridges are numbered along the chain shown (N, C = ends). Where no end group is shown, it is not given here.

Legend:
myeloperoxidase [1] = experiment: 99mTc-phage incubated with 125I-myeloperoxidase, separated on a spin column / Sepharose 6B column
TAG-72 = experiment: 99mTc-labeled phage on LS-174T colon cancer cells expressing TAG-72
myeloperoxidase [2] = experiment: SE-HPLC on a Superose-12 column, 5 min incubation
myeloperoxidase [3] = experiment: SE-HPLC on a Superose-12 column, 2 hours incubation
myeloperoxidase [4] = experiment: SPR (Biacore 1000), biotinylated myeloperoxidase on a streptavidin chip, peptide at 1 uM, fitted curve

Sequence of myeloperoxidase (P05164 165-745): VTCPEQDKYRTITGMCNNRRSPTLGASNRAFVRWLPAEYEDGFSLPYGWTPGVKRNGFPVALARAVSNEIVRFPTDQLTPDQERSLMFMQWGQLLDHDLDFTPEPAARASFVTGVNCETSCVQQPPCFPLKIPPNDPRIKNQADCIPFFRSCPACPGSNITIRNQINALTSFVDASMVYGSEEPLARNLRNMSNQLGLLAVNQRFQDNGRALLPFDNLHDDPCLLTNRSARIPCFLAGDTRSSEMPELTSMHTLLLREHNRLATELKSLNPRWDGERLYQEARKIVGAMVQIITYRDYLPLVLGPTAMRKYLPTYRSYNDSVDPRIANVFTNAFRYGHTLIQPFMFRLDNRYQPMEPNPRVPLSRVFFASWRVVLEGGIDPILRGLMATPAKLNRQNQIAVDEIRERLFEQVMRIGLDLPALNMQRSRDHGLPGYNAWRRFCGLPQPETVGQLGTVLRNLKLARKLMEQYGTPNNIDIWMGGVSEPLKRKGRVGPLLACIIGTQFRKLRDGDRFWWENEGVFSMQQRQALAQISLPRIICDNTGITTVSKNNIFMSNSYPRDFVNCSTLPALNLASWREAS

RSGQCHDDTWNCLACV (disulfide 5-12; also: phage labelled with 99mTc via MAG3) [phage clone MPO-17 (f88-4/Cys6 phage displaying a 16 mer cysteine-constrained peptide in pVIII)] showed a Relative Binding (% bound after subtraction of control phage MPO-4) (myeloperoxidase [1]) of 8%.

TVMLCNPMEQGCRWMC (disulfide 5-12; also: phage labelled with 99mTc via MAG3) [phage clone MPO-15 (f88-4/Cys6 phage displaying a 16 mer cysteine-constrained peptide in pVIII)] gave a Relative Binding (% bound after subtraction of control phage MPO-4) (myeloperoxidase [1]) of 4.5%.

With AMPVCSLDRKACTAYQ (disulfide 5-12; also: phage labelled with 99mTc via MAG3) [phage clone MPO-1 (f88-4/Cys6 phage displaying a 16 mer cysteine-constrained peptide in pVIII)] the Relative Binding (% bound after subtraction of control phage MPO-4) (myeloperoxidase [1]) was 3.9%.

B1: control phage clone A3-12 (f88-4/Cys6 phage displaying a 16 mer cysteine-constrained peptide in pVIII) (peptide)
peptide: MNYYCHQTTKTCRTHS
modifications: disulfide 5-12 (inferred); also: displayed on phage, cysteine-constrained, 99mTc-labelled
For B1, the Relative Binding (the control phage, the reference itself) (TAG-72) was 1 fold.

B2: phage clone A3-19 (f88-4/Cys6 phage displaying a 16 mer cysteine-constrained peptide in pVIII) (peptide)
peptide: NLIWCRKEFARCTSDM
modifications: disulfide 5-12 (inferred); also: displayed on phage, cysteine-constrained, 99mTc-labelled
B2 gave a Relative Binding (fold over control phage A3-12) (TAG-72) of 1.5 fold.

For HVLGCSYATNSCAHNA (disulfide 5-12; also: phage labelled with 99mTc via MAG3) [phage clone MPO-6 (f88-4/Cys6 phage displaying a 16 mer cysteine-constrained peptide in pVIII)], the Relative Binding (% bound after subtraction of control phage MPO-4) (myeloperoxidase [1]) was 5.8%.

B3: phage clone A3-10 (f88-4/Cys6 phage displaying a 16 mer cysteine-constrained peptide in pVIII) (peptide)
peptide: NPGTCKDKWIECLLNG
modifications: disulfide 5-12 (inferred); also: displayed on phage, cysteine-constrained, 99mTc-labelled in binding assays
For B3, the Relative Binding (fold over control phage A3-12) (TAG-72) was 4.3 fold.

With RSGQCHDDTWNCLACVGGSGGGC (also: cysteine-constrained, Cys pairing not given here) [MPO-17 twenty-three mer synthetic polypeptide] the UV peak for the enzyme, % of total protein at 5 min of incubation (% of total protein) (myeloperoxidase [2]) was 16, the UV peak for the enzyme, % of total protein after 2 hours incubation (% of total protein) (myeloperoxidase [3]) was 46 and the Kd (myeloperoxidase [4]) was 900 nM.

B4: phage clone A3-21 (f88-4/Cys6 phage displaying a 16 mer cysteine-constrained peptide in pVIII) (peptide)
peptide: LKNYCRKCSNRCTPTG
modifications: disulfide (positions not given here); also: displayed on phage, cysteine-constrained, 99mTc-labelled
For B4, the Relative Binding (fold over control phage A3-12) (TAG-72) was 1 fold.
